{
  "source": "patent US20110111406A1",
  "about": "(published 2011)",
  "binders": {"B1": {"name": "CLH5/L73 (antibody, IgG1, V domains shown)", "VH": "QVQLQESGPGLVKPSETLSLTCAVSGYSISHDHAWSWVRQPPGEGLEWIGHISYSGITNYNPHLKGRVTISRDTSKNQFSLKLSSVTAADTAAYYCARFLARITAHDHWGEGTLVTVSS", "VL": "DIQMTQSPSSLSASVGDSVTITCQASQHISSHLNWYQQKPGKAPELLIYYGSHLHSGVPSRFSGSGSGTDFTFTISSLEAEDAATYYCGQGNRLPYTFGQGTKVEIE"}, "B2": {"name": "H170/L82 (antibody, IgG1, V domains shown)", "VH": "B1 VH with Y27H, D32H, W35H, H51Y, N59H, F99V, H106M", "VL": "B1 VL with H28D", "notes": "expressed and purified as IgG (IgG1); also called H170/L82-IgG1"}, "B3": {"name": "Anti-IL31R clone 1 (antibody, human IgG1, lambda, V domains shown)", "VH": "not shown", "VL": "LPVLTQPPSVSVAPGQTARITCGGNNIGSKTVYWYQQEPGQAPVLVVYDDTDRPAGIPERFSGANSGNTATLTISRVEAGDEADYYCQVWDSSTDHGVFGGGTKLTVLG"}},
  "key": {"[1]": {"target": "T1, recombinant soluble human IL-6 receptor (SR344) (human, UniProt P08887 20-344)", "T1 construct": "In the 'membrane-type IL-6 receptor' Biacore assays the same SR344 was biotinylated and immobilized via streptavidin; also called soluble IL-6 receptor; membrane-type IL-6 receptor (as biotinylated SR344 immobilized on the sensor chip)", "T1 sequence (looked up)": "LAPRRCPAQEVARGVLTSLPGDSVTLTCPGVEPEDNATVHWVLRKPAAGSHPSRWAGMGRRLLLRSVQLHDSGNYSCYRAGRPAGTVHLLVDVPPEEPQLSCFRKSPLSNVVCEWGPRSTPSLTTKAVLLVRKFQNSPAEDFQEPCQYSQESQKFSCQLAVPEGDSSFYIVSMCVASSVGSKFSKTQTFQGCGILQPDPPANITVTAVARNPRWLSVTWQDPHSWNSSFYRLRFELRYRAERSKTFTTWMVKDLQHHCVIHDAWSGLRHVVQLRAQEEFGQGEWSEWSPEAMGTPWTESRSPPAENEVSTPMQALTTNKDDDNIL", "assay": "Biacore T100, antibody captured on protein A/G, SR344 as analyte, 37C; ratio of KD at pH 5.8 to pH 7.4", "description": "(§1) Kinetic analyses of antigen-antibody reactions at pH 5.8 and pH 7.4 were carried out using Biacore T100 (GE Healthcare) on the four antibodies: humanized PM1 antibody (WT) and H3pI/L73, CLH5/L73, and H170/L82 produced in Examples 2 and 4 (buffer: 10 mM MES (pH 7.4 or pH 5.8), 150 mM NaCl, and 0.05% Tween 20). Various antibodies were bound onto a sensor chip immobilized with recomb-protein A/G (Pierce) by amine coupling. SR344 adjusted to concentrations of 9.8 to 400 nM was injected to the chip as an analyte. […] All the measurements were carried out at 37° C. Association rate constants kₐ (1/Ms) and dissociation rate constants kd (1/s) were calculated using Biacore T100 Evaluation Software (GE Healthcare), and dissociation constants KD (M) were calculated on the basis of those values (Table 5). Moreover, the ratio of the affinities at pH 5.8 and pH 7.4 were calculated for each clone to evaluate pH-dependent binding. All the measurements were carried out at 37° C."}, "[2]": {"target": "T1, recombinant soluble human IL-6 receptor …", "assay": "Biacore T100, SR344 as analyte; KD(pH5.8)/KD(pH7.4) compared with WT", "description": "as §1"}, "[3]": {"target": "T1, recombinant soluble human IL-6 receptor …", "assay": "Biacore T100, integrated RU of SR344 bound over ten cycles of pH 7.4 binding and pH 5.8 exposure, 37C", "description": "Biacore (GE Healthcare) was used to evaluate that the antibodies binding at pH 7.4 and dissociating at pH 5.8 were able to bind to the antigen multiple times. The antibody to be evaluated was bound to a recomb-protein A/G (Pierce)-immobilized sensor chip by the amine coupling method, and a mobile phase of pH 7.4 was allowed to flow (step 1). SR344 solution adjusted to pH 7.4 was then allowed to flow as an analyte to bind SR344 to the antibody at pH 7.4 (step 2). This binding at pH 7.4 mimics the antigen binding in plasma. Subsequently, buffer adjusted to pH 5.8 alone (not containing SR344) was added as an analyte to expose the antigen bound to the antibody to acidic conditions (step 3). This dissociation at pH 5.8 mimics the binding state of antigen-antibody complexes in endosomes. Subsequently, step 2 was repeated. This mimics the rebinding of antibody that has been returned to plasma by FcRn to a new antigen. Subsequently, […] was repeated to expose the antibody-antigen complex to acidic conditions.\nThe produced pH-dependent binding clones described above were analyzed using Biacore T100 (GE Healthcare) for their ability to bind to the antigen SR344 multipe times at pH 5.8 and pH 7.4. More specifically, the analysis was carried out as follows. All the measurements were carried out at 37° C. […]"}, "[4]": {"target": "T1, recombinant soluble human IL-6 receptor …", "assay": "Biacore T100, antibody captured on protein A/G, SR344 as analyte, 37C; ratio of KD at pH 5.8 to pH 7.4", "description": "(§2) Kinetic analysis of antigen-antibody reactions at pH 7.4 and pH 5.8 was carried out using Biacore T100 (GE Healthcare) for the four types of antibodies prepared: WT-IgG1, H54/L28-IgG1, H170/L82-IgG1, and Fv4-IgG1(buffer: 10 mM MES (pH 7.4 or pH 5.8), 150 mM NaCl, 0.05% Surfactant-P20). The antibodies were bound to a sensor chip on which recomb-protein A/G (Pierce) was immobilized by amine coupling, and SR344 adjusted to an appropriate concentration was injected therein as an analyte. The association with and dissociation from SR344 of each type of antibody were observed on a real-time basis. All the measurements were carried out at 37° C. Association rate constants kₐ (1/Ms) and dissociation rate constants kd (1/s) were calculated using Biacore T100 Evaluation Software (GE Healthcare), and dissociation constants KD (M) were calculated based on those values (Table 17).", "remark": "listed apart in the source"}, "[5]": {"target": "T1, recombinant soluble human IL-6 receptor …", "assay": "Biacore T100, antibody captured on protein A/G, SR344 as analyte, 37C; ratio of kd at pH 5.8 to pH 7.4", "description": "as §2"}, "[6]": {"target": "T2, soluble mouse IL-31 receptor (mouse, UniProt Q8K5B1 19-499)", "T2 construct": "Soluble form", "T2 sequence (looked up)": "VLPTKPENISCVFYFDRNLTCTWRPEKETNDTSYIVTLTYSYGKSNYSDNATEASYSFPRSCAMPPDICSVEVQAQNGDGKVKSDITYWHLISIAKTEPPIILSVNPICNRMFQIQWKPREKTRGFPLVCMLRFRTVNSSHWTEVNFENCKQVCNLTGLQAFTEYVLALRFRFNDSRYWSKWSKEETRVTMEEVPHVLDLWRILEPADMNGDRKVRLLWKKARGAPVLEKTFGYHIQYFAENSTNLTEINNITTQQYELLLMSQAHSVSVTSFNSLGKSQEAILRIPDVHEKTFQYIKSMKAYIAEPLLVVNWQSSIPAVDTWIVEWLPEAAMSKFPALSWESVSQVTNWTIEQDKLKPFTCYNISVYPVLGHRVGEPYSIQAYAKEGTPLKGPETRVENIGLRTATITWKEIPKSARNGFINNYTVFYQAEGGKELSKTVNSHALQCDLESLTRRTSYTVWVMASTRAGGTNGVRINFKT", "assay": "Biacore T100, soluble mouse IL-31 receptor as analyte; KD(pH 5.5)/KD(pH 7.4) compared with Anti-IL31R wild type", "description": "Kinetic analysis of antigen-antibody reactions at pH 5.5 and pH 7.4 was carried out using Biacore T100 (GE Healthcare) for the two types of antibodies prepared as mentioned above: Anti-IL31R wild type and Anti-IL31R clone 1 (buffer: DPBS(−) (pH 7.4 or pH 5.5), 150 mM NaCl, 0.01% Tween 20, 0.02% NaN₃). The antibodies were bound to a sensor chip on which recomb-protein A/G (Pierce) was immobilized by amine coupling, and then the soluble mouse IL-31 receptor (prepared according to the method described in WO 2007/142325) adjusted to an appropriate concentration was injected therein as an analyte. All the measurements were carried out at 25° C. Association rate constants kₐ (1/Ms) and dissociation rate constants kd (1/s) were calculated using Biacore T100 Evaluation Software (GE Healthcare), and dissociation constants KD (M) were calculated based on those values (Table 16). Furthermore, the ratio of affinity at pH 5.5 and pH 7.4 was calculated for each clone to evaluate the pH-dependent binding."}},
  "note": "Substitutions are numbered along the chain they refer to. Read-outs that look alike come from different tables or passages of the source.",
  "data": [
    {"binder": "B1", "values": [
      {"measurement": "KD(pH5.8)/KD(pH7.4)", "setting": "[1]", "value": 66.1},
      {"measurement": "pH-dependent binding (affinity ratio) relative to WT", "setting": "[2]", "value": 15, "unit": "times"},
      {"measurement": "total amount of antigen bound over ten cycles relative to WT", "setting": "[3]", "value": "~4", "unit": "times"}
    ]},
    {"binder": "B2", "values": [
      {"measurement": "KD(pH5.8)/KD(pH7.4)", "setting": "[1]", "value": 394},
      {"measurement": "KD(pH5.8)/KD(pH7.4)", "setting": "[4]", "value": 61.9},
      {"measurement": "pH-dependent binding (affinity ratio) relative to WT", "setting": "[2]", "value": 15, "unit": "times"},
      {"measurement": "kd(pH 5.8)/kd(pH 7.4)", "setting": "[5]", "value": 11.4},
      {"measurement": "total amount of antigen bound over ten cycles relative to WT", "setting": "[3]", "value": "~4", "unit": "times"}
    ]},
    {"binder": "B3", "values": [
      {"measurement": "pH-dependent binding ability relative to WT", "setting": "[6]", "value": "~300", "unit": "times"}
    ]}
  ]
}
